In the experiment the target is T1, SDS22 (tag-free, purified) (human, UniProt Q15435 1-360).
T1 construct: SDS22 (PPP1R7), human, wild type; also called SDS22-WT; untagged SDS22; source: HEK293T, transiently transfected; EGFP-SDS22 purified on EGFP-trap beads, tag-free after TEV protease
T1 sequence (looked up): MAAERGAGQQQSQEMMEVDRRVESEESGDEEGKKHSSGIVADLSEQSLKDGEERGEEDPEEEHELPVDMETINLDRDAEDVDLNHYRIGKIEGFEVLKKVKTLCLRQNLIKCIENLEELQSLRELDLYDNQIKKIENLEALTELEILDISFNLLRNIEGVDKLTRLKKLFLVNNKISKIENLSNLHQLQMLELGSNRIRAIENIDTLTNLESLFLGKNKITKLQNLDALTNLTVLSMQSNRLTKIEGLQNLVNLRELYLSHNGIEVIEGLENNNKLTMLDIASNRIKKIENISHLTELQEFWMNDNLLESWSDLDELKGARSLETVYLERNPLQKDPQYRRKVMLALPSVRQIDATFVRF
In words: ITC; 5 μM SDS22 in the cell titrated with 50 μM His-I3 (20 injections), 22 °C, MicroCal iTC200; binding curves not saturated. The note with it: both partners purified.

B1: His-I3 (natural protein, human, UniProt O60927 1-126, looked up)
chain: MAEAGAGLSETVTETTVTVTTEPENRSLTIKLRKRKPEKKVEWTSDTVDNEHMGRRSSKCCCIYEKPRAFGESSTESDEEEEEGCGHTHCVRGHRKGRRRATLGPTPTTPPQPPDPSQPPPGPMQH
notes: source: E. coli BL21 (pET16b), purified (Ni2+-Sepharose)
For the molecule B1, the Kd came to 7.6 µM.

Values taken from article PMC11199634 (Nature Communications, 2024).
